# B1: Hairpin Ribozyme (parent)
# chain: GUCCUCUUUCACGUGCGCGUGAAAGAGAGAAGUGAACCAGAGAAACACACGUUGUGGUAUAUUACCUGGUA
# B2: HDV Ribozyme (parent)
# chain: GGCCGGCAUGGUCCCAGCCUCCUCGCUGGCGCCGGCUGGGCAACAUUCCGAGGGGACCGUCCCCUCGGUAAUGGCGAAUGGGACCCA
# Variants of: B1
# Assay: self-cleavage, relative activity (ratio to wild type); higher = more cleavage; co-transcriptional
row,Variant,self-cleavage
1,G1A C66U,0.127
2,G1A C66A,0.164
3,U2A A26C,0.311
4,U2A G54A,0.143
5,U2A G54C,0.145
6,G1A A61U,0.0641
7,G1U A30U,0.162
8,G1U A30C,0.178
9,G1C U8G,0.216
10,G1U C12A,0.0913
11,U2A A22U,0.208
12,G1A G19C,0.203
13,G1A G19U,0.13
14,G1A G19A,0.203
15,G1U A45U,0.228
16,G1U A45G,0.0992
17,G1U A45C,0.126
18,G1A U63A,0.146
19,G1A U63G,0.284
20,U2A U5A,0.137
21,U2A U5C,0.137
22,U2A G15C,0.391
23,U2A U33C,0.0635
24,U2A U33G,0.151
25,G1C U33C,0.134

row,Variant,self-cleavage
1,G1C U33G,0.228
2,G1C G19C,0.0663
3,G1C G19U,0.194
4,G1C A31C,0.284
5,U2A G25A,0.259
6,G1C A22C,0.274
7,G1A G42A,0.122
8,G1A C50U,0.135
9,G1U A23G,0.183
10,G1U A23C,0.0726
11,G1U G25A,0.133
12,G1U G25U,0.21
13,G1U G25C,0.0754
14,U2A A44G,0.119
15,U2A U55C,0.153
16,U2A A49G,0.188
17,G1A U58C,0.216
18,U2A A11U,0.269
19,G1U U5G,0.194
20,G1A U2A,0.574
21,G1U A71U,0.167
22,U2A G29U,0.111
23,G1U U2C,0.232
24,U2A U14G,0.235
25,U2A U14A,0.174

row,Variant,self-cleavage
1,G1A G69A,0.164
2,G1A G69C,0.137
3,G1A U60G,0.194
4,G1A U60C,0.248
5,G1C A44U,0.295
6,G1A G21C,0.119
7,U2A U60C,0.542
8,U2A A61G,0.106
9,U2A A61U,0.159
10,U2A G32C,0.0974
11,G1A A30U,0.159
12,G1A U8A,0.232
13,G1A U8C,0.265
14,G1A A35U,0.142
15,G1U G27C,0.113
16,G1U C4U,0.206
17,G1C U52A,0.0569
18,G1U A28C,0.0863
19,G1A G51U,0.274
20,G1A U62G,0.0492
21,G1A U62C,0.133
22,G1U C10U,0.132
23,G1U C10A,0.151
24,G1U A43C,0.169
25,G1U A43U,0.142

row,Variant,self-cleavage
1,G1U A43G,0.0972
2,G1A A24C,0.18
3,G1A A24U,0.191
4,G1A A24G,0.159
5,U2A C16G,0.156
6,G1C G27C,0.201
7,G1U U53C,0.179
8,G1U G42A,0.121
9,G1U G42C,0.0939
10,G1U G42U,0.162
11,G1U A26C,0.103
12,G1U A26U,0.068
13,G1U G21C,0.112
14,G1U G21U,0.109
15,U2A U7G,0.197
16,U2A U7C,0.273
17,U2A A43C,0.114
18,G1A A28G,0.196
19,G1A A28U,0.0496
20,G1C G42A,0.148
21,G1C G42U,0.145
22,G1C A49G,0.315
23,G1C A49U,0.252
24,G1C A49C,0.159
25,G1C U62C,0.0543

row,Variant,self-cleavage
1,G1C A35C,0.0578
2,G1U C38A,0.154
3,G1A A36C,0.215
4,U2A C48G,0.162
5,U2A C48U,0.104
6,G1A A26C,0.147
7,G1U G17C,0.112
8,G1U G17A,0.2
9,G1A U5G,0.14
10,G1A G15U,0.0969
11,G1A G15A,0.208
12,U2A A64C,0.112
13,G1U A47C,0.107
14,G1U A47G,0.046
15,G1U G13A,0.0563
16,G1C C16A,0.0908
17,G1A G29U,0.157
18,G1A G29A,0.157
19,G1A G29C,0.196
20,G1A A22G,0.223
21,U2A G40U,0.129
22,G1A A64C,0.0979
23,G1A C38G,0.157

# Variants of: B2
# Assay: as above
row,Variant,self-cleavage
1,A83U C85U,0.446
2,G81U A87U,0.455
3,G81A C84G,0.237
4,G81A A87G,0.258
5,G81U A83U,0.126
6,G81C C86G,0.138
7,C85G C86G,0.905
8,G82C A87U,0.247
9,G81A,0.403
10,G81C,0.268
11,G81U,0.365
12,G82A C86G,0.279
13,A83U C86A,0.708
14,A83U C86G,0.361
15,G82A C84G,0.232
16,G82A C84U,0.215
17,A83G C84U,0.798
18,C85G A87U,0.785
19,G80U C85G,0.191
20,C84U A87G,0.437
21,C84A A87C,0.758
22,G82U C84G,0.249

row,Variant,self-cleavage
1,G81U G82C,0.297
2,G82C C84G,0.101
3,G81U C86A,0.652
4,G82A A83C,0.451
5,G82A A83G,0.156
6,G81C G82A,0.0665
7,G82C C86A,0.527
8,G81A C85U,0.163
9,C84A C86U,0.719
10,A83C A87U,0.346
11,G82U C86U,0.554
12,G81C A83U,0.237
13,G81C A83C,0.222
14,G81C A83G,0.131
15,C85A A87G,0.875
16,G81A C86A,0.805
17,G82C A83G,0.233
18,A83C C84U,0.582
19,G82U A87C,0.406
20,A83U C84A,0.813
21,A83U C84G,0.332
22,G81C C85U,0.244

# From the RNAGym collection of RNA variant scans (doi:10.7554/elife.80360)
